# Source: the DeepSol protein solubility set
# Experiment: soluble on expression in E. coli; label from the status in PepcDB or PDB records
row,Sequence,soluble on expression in E. coli
1,MSQSTSAGGSQAVAQNPGAKLGFSMRSASIASDSVPCESGLCEAPPGVLSGAGTVFCESTYKVKIDNETVWQVPTRLKFVKKVGSGAYGCVASFEDTSASASEQGTEDDPSRREQSGETRTSQTGSAEGDSGTNKKVAVKKIGDLFRDLIDAKRIYREIKILKELKHENIINLVEILDPLTPDFEDIYLVSDLMDTDLHRVIYSRQPLTPEHHQYFLYQLLLGLSFLHQADIIHRDLKPSNILVNLNCDIKICDFGLARGLNMNPAPPPNLLPPATHRAGPAAAQDVVCTYTPPDNLSGAGKWGDQKLAAAAGAGSIAATRLVRLAHQQGSSLIGAQHQVPAKTDDASDDMELTDYVVTRWYRPPEILISPFCYSKPVDLWSVGCIFAELLGRRALFAGKDHFDQLRRIVRVLGRPSTAEINKVANEGRGRHFNNPSKGTSNTKRKRSEAARRFIESLPNSDPYKLEDLFPDASKAALDLLSNLLTFDPAKRITVQEALRHEYFEGLHSVEDEPTVTTPVNWSFDNFVPTKR,soluble
2,MSQTILFVCATGIATSTAVTEKVMEYCKEQGLNVNYSQTNVASLPGNTDGVALVVSTTKVPYELDVPVVNGLPIITGIGEEKVLAQIVSILKK,soluble
3,MSRDGQNGTATFYFDEPQALVGEVRQDITGMYLLDDEGELATREVKAKFINGQPAGLEAVYLMRSPEEWDRFMRFMQRYAEANGLGFTEALEHHHHHH,not soluble
4,MSRFIPIELHHASRLLNHGPTVLITSFDEQSQRRNIMAAAWSMPVEFEPPRVAIVVDKSTWTRELIEHNGKFGIVIPGVAATNWTWAVGSVSGRDEDKFNCYGIPVVRGPVFGLPLVEEKCLAWMECRLLPATSAQEEYDTLFGEVVSAAADARVFVEGRWQFDDDKLNTLHHLGAGTFVTSGKRVTAG,soluble
5,MSRGDKMLKFEIKARDGAGRIGKLEVNGKKIETPAIMPVVNPKQMVVEPKELEKMGFEIIITNSYIIYKDEELRRKALELGIHRMLDYNGIIEVDSGSFQLMKYGSIEVSNREIIEFQHRIGVDIGTFLDIPTPPDAPREQAVKELEITLSRAREAEEIKEIPMNATIQGSTYTDLRRYAARRLSSMNFEIHPIGGVVPLLESYRFRDVVDIVISSKMALRPDRPVHLFGAGHPIVFALAVAMGVDLFDSASYALYAKDDRYMTPEGTKRLDELDYFPCSCPVCSKYTPQELREMPKEERTRLLALHNLWVIKEEIKRVKQAIKEGELWRLVDERARSHPKLYSAYKRLLEHYTFLEEFEPITKKSALFKISNESLRWPVVRRAKERAKSINERFGELVEHPIFGRVSRYLSLTYPFAQSEAEDDFKIEKPTKEDAIKYVMAIAEYQFGEGASRAFDDAKVELSKTGMPRQVKVNGKRLATVRADDGLLTLGIEGAKRLHRVLPYPRMRVVVNKEAEPFARKGKDVFAKFVIFADPGIRPYDEVLVVNENDELLATGQALLSGREMIVFQYGRAVKVRKGVE,soluble
6,MSRIMIQGTASSVGKSILVAALCRIFKQDGFSVCPYKSQNMSLNSYITLDGKEMGRAQVLQAYAAGLEPEVYMNPILLKPTTDKSCQVIVKGEVYGVSSAKNYYNMKKEFAPMLKEDFEELEDKFDIVVIEGAGSPAEINLRENDIVNMGLAELVDAPVVLVGDIDKGGVFASLFGTVMLLEENERKRIKGTIINKFRGDVEILKPGLSMLEERINIPCFGVVPYFN,not soluble
7,MSRISSMAYKWKQPPPPINDDSRHRSQSNSRLFDRIYGQMHRGNKAFEHTTSYDESISGFMRRRFAGNGERALPLRYGTNPHQKDDAELYIVEDEMPIKVLNGSPGYINILDGLNGWQLVKELSDATKMPAAASFKHVSPAGAAVGLPLNETEAACCMVSDLPIDTKKPSLAAAYARARGADRMSSFGDFIALSEKCDELTAKIINREVSDGVVAPDFDPAALSLLAKKKNGNYCVLKINPNYLPSETEERTVFGLRLRQKRNNAVINAETFNNVVGSANELNKQAIDDLIVATIALKYAQSNSVCFAHRGQVIGMGAGQQSRIHCTRLAGDKAMNWWLRQHPTVLSLPWKNAIKRSEKSNAIDVLCSGVLGSEVCNFKFNRPLSYFSLVTNL,not soluble
8,MSRPESVLQLARKFGEISAAQENDIHKSRLSLKLGGKENLTKPTLILSKSGPPTPIRHVAPTITHTLPNRPNIGGIASLKSEPKMSRPNMFKQMEKVESNTTTTAPPRQLNPNSIKDALLRWIQNRVAGYPNVNVTNFSSSWADGMAFCALIHRFAPNSFDFSKLDPNNRRYNFDLAFKVAEDNGIFPLLEVDDMIMMGDRPDWKCVFTYVQSFYKQFRDHP,not soluble
